Experiments:
[1] = tested on: primary and secondary immune cells; test: PD effects in vitro and ex vivo: activation of immune cells, induction of cytokines; type: cell-based
[2] = tested on: Blood cell subsets (CD4, CD8, PBMCs, monocytes) and Th1 biomarker (CXCL-10); test: AIPAC immuno-monitoring of blood cell subsets, Th1 biomarker and absolute lymphocyte count; type: in vivo, human
Method: Immuno-monitoring was also conducted. Blood cell subsets (CD4, CD8, PBMCs, monocytes) and Th1 biomarker (CXCL-10) were measured centrally. Comparison was done using 2-sided Wilcoxon test.
(§1) On the other hand, pre-study levels of CD8+ T cells were not correlated with OS in either treatment arm. Efti increases secondary target cells (CD8+ T cells) in the peripheral blood, leading to improved OS.
Increase of ALC is linked to improved survival for patients treated with efti arm, but not for patients in the placebo arm (FIG. 9). […] As this increase is observed early, it could be used in the future as a potential early on study biomarker for treatment continuation.

[3] = Nonclinical toxicity study; type: in vivo
[4] = Clinical pharmacokinetics of s.c. efti in cancer patients; type: in vivo, human; details: for Cavg24h: cancer patients
Method: as §1
Efti doses of 6 and 30 mg given clinically lead to plasma Cmax of ≥1 ng/ml in most patients, this concentration reflecting the minimum concentration for desired efti PD effects. However, systemic efti levels of >1 ng/ml and lasting for ≥24 h have been observed in about 90% of patients receiving efti 30 mg, compared to only 20% at 6 mg.

[5] = tested on: CD4+ and CD8+ T cells numbers and activation status, IFN-γ and CXCL10; test: PD markers of T cell immune response in patients dosed with efti every 2 weeks; type: in vivo, human
[6] = human, in vivo
[7] = Clinical safety and tolerability of IMP321 (efti)
[8] = Pharmacokinetics of s.c. IMP321 in metastatic renal cell cancer patients; type: in vivo, human; details: for at least 24 hours after s.c. injection; doses of more than 6 mg
[9] = tested on: HER2 negative hormone receptor-positive metastatic breast cancer patients; test: AIPAC Phase IIb study: paclitaxel+IMP321 vs paclitaxel+placebo, overall survival; type: in vivo, human
Method: A multicentre, placebo-controlled, double-blind, 1:1 randomised Phase IIb study in female HER2 negative hormone receptor-positive metastatic breast cancer patients was conducted. The study comprised two stages: • stage 1 which was an open-label, safety run-in stage consisting of cohorts 1 and 2 to confirm the recommended Phase II dose (RPTD) of IMP321 in combination with paclitaxel; and • stage 2 which was a placebo-controlled, double-blind randomisation stage, paclitaxel+IMP321 at the RPTD compared to paclitaxel+placebo.
The chemo-immunotherapy phase consisted of 6 cycles of 4 weeks. Patients received weekly paclitaxel at Days 1, 8 and 15 with adjunctive treatment of study agent (IMP321) on Days 2 and 16 of each 4-week cycle. After completion of the 6-cycle chemo-immunotherapy phase, responding or stable patients received study agent (IMP321) every 4 weeks during the maintenance phase for an additional period of up to 12 injections.
The chemo-immunotherapy phase consisted of 6 cycles of 4 weeks. Patients received weekly paclitaxel at Days 1, 8 and 15 with adjunctive treatment of study agent (placebo) on Days 2 and 16 of each 4-week cycle.
After completion of the 6-cycle chemo-immunotherapy phase, responding or stable patients received study agent (placebo) every 4 weeks during the maintenance phase for an additional period of up to 12 injections.
In addition, multivariate analysis was done using backward selection (p>0.15) from the univariate cox model.

[10] = 8 treatment emergent adverse events in 3 of 5 patients with Cmax >10 ng/ml
[11] = Overall population, paclitaxel+IMP321 30 mg vs paclitaxel+placebo, univariate analysis, p 0.197
[12] = Sub-group <5 years since diagnosis, multivariate analysis table, p 0.025
[13] = Sub-group <65 years, univariate analysis, p 0.017
[14] = Sub-group Luminal B, univariate analysis, p 0.049
[15] = Sub-group high (>3.65) NLR at baseline, multivariate analysis table, p 0.012
[16] = Sub-group low baseline monocytes (<0.25/nL), univariate analysis, p 0.008
[17] = Sub-group low baseline monocytes, multivariate analysis table, p 0.008
[18] = Sub-group no prior taxane therapy, multivariate analysis table, p 0.076
[19] = Sub-group no prior taxane therapy, univariate analysis, p 0.076

B1: IMP321: recombinant soluble human LAG-3Ig fusion protein, 160-kDa dimer: extracellular domain of hLAG-3 fused to human IgG1 Fc; APC activator (protein)
chain: LQPGAEVPVVWAQEGAPAQLPCSPTIPLQDLSLLRRAGVTWQHQPDSGPPAAAPGHPLAPGPHPAAPSSWGPRPRRYTVLSVGPGGLRSGRLPLQPRVQLDERGRQRGDFSLWLRPARRADAGEYRAAVHLRDRALSCRLRLRLGQASMTASPPGSLRASDWVILNCSFSRPDRPASVHWFRNRGQGRVPVRESPHHHLAESFLFLPQVSPMDSGPWGCILTYRDGFNVSIMYNLTVLGLEPPTPLTVYAGAGSRVGLPCRLPAGVGTRSFLTAKWTPPGGGPDLLVTGDNGDFTLRLEDVSQAQAGTYTCHIHLQEQQLNATVTLAIITVTPKSFGSPGSLGKLLCEVTPVSGQERFVWSSLDTPSQRSFSGPWLEAQEAQLLSQPWQCQLYQGERLLGAAVYFTELSSPG
modifications: left off: small tags and cut ends; a dimerising Fc or GST
- efti concentration at which desired PD effects start [1]: 1 to 10 ng/mL
- On treatment fold-change of PBMCs ([2]; IMP321 group vs placebo 1.41, p=0.041): 2.00 fold
- On treatment fold-change of T cells ([2]; IMP321 group vs placebo 1.48, p=0.086): 2.28 fold
- On treatment fold-change of CXCL10 ([2]; IMP321 group vs placebo 1.56, p=0.06): 2.78 fold
- On treatment fold-change of monocytes ([2]; IMP321 group vs placebo 2.29, p=0.025): 5.81 fold
- absolute lymphocyte count increase ([2]; efti arm, early (after 4 weeks) and sustainable): ≥ 0.2 nL⁻¹
- circulating CD8+ T cells ([2]; efti arm, fresh whole blood by FACS (n=75), samples 2 weeks after previous efti dose, not in placebo arm): sustainable, statistically significant increase
- Post baseline CD8 T cells count (median) ([2]; patients with improved OS, IMP321 group vs placebo 223, p=0.005): 377 µL⁻¹
- Post baseline CD4 T cells count (median) ([2]; patients with improved OS, IMP321 group vs placebo 736, p=0.038): 896 µL⁻¹
- NOAEL dose [3]: 15 mg/kg
- patients with systemic efti levels of >1 ng/ml lasting for ≥24 h ([4]; 6 mg): 20%
- Cavg24h ([4]; 6 mg): 0.8 ng/mL
- patients with systemic efti levels of >1 ng/ml lasting for ≥24 h ([4]; 30 mg): about 90%
- Cavg24h ([4]; 30 mg s.c.): 3.3 ng/mL
- plasma Cmax ([4]; doses of 6 and 30 mg, in most patients): ≥ 1 ng/mL
- time until efti disappears from the bloodstream after injection ([4]; s.c. injection): 3 to 4 days
- proportion of patients with upregulation of at least one PD marker (1.4-fold increase compared to baseline) ([5]; 1 mg): about 50%
- proportion of patients with upregulation of at least one PD marker (1.4-fold increase compared to baseline) ([5]; 30 mg): about 90%
- safety and tolerability of dose [6]: safe and tolerable
- safety of s.c. doses ([6]; sc): safe
- grade ≥3 adverse events related to efti ([7]; 5 patients with Cmax of >10 ng/ml at dose 1): no grade ≥3 adverse events related to efti
- adverse reactions mild in severity [7, 10]: 62.5%
- adverse reactions moderate in severity [7, 10]: 37.5%
- dose limiting toxicity ([7]; observed to date): No dose limiting toxicity
- blood concentration of IMP321 [8]: > 1 ng/mL
- Absolute gain in median OS [9, 11]: +2.9 months
- Hazard Ratio [95% CI] (OS) [9, 11]: 0.88
- Absolute gain in median OS [9, 12]: +4.8 months
- Hazard Ratio [95% CI] (OS) [9, 12]: 0.62
- Absolute gain in median OS [9, 13]: +7.5 months
- Hazard Ratio [95% CI] (OS) [9, 13]: 0.66
- Absolute gain in median OS [9, 14]: +4.2 months
- Hazard Ratio [95% CI] (OS) [9, 14]: 0.67
- Absolute gain in median OS [9, 15]: +6.9 months
- Hazard Ratio [95% CI] (OS) [9, 15]: 0.61
- Absolute gain in median OS [9, 16]: +19.6 months
- Hazard Ratio [95% CI] (OS) [9, 16]: 0.44
- Absolute gain in median OS [9, 17]: +19.6 months
- Hazard Ratio [95% CI] (OS) [9, 17]: 0.44
- Absolute gain in median OS [9, 18]: +4.8 months
- Hazard Ratio [95% CI] (OS) [9, 18]: 0.74
- Absolute gain in median OS [9, 19]: +4.8 months
- Hazard Ratio [95% CI] (OS) [9, 19]: 0.74
- improvement in median overall survival (OS) ([9]; young patients (<65 years), low baseline monocytes (<0.25/nL), or Luminal B, exploratory univariate analysis): significant and clinically meaningful improvement

Source: US20250368714A1, “TREATMENT OF CANCER” (Immutep S.A.S., priority 2022, published 2025)
